Reference: patent US20110142789A1 (University of Pennsylvania, published 2011)

Molecular target: T1, endogenous human Ataxin-2 (human, UniProt Q99700 1-1313, limits assumed)
T1 construct: Endogenous protein in HEK293T lysate, detected by immunoblot with α-Ataxin-2 (BD); also called ATXN2
Test: co-immunoprecipitation from HEK293T lysate (α-GFP IP, α-Ataxin-2 blot)
From the text: CFP-Pbp1 and TDP-43-YFP show accumulations in yeast that frequently co-localize (arrows). b) Co-immunoprecipitation assays in yeast. Yeast cells co-transformed with untagged TDP-43 and either CFP-Pbp1 or CFP alone were lysed and subjected to immunoprecipitation with an α-GFP antibody (also detects CFP), then subjected to immunoblotting with a-TDP43. […] HEK293T cells were transfected with expression constructs encoding YFP, TDP-43-YFP, TDP-43ΔNLS-YFP (NLS mutant that localizes the protein to the cytoplasm), TDP-43_{ΔNLS,5F}_{_{→}}L-YFP (NLS mutant coupled with RNA-binding mutant, (5 point mutations in the RRM domains that abolish RNA-binding)), or TDP-435F_{_{→}}L-YFP (RNA-binding mutant). Protein was immunoprecipitated with a-GFP antibody (detects YFP), and then subjected to immunoblotting with a-Ataxin-2 to detect endogenous Ataxin-2. […] The interaction between Ataxin-2 and TDP-43 seen normally (left lanes) was abolished upon RNase treatment (right lanes). e) HEK293T cells transfected with YFP-tagged WT and mutant TDP-43 constructs then immunostained for endogenous Ataxin-2. Normally, Ataxin-2 is localized to the cytoplasm forming occasional cytoplasmic accumulations. TDP-43 localized to the nucleus in a diffuse pattern. […]

T1 sequence (Q99700 whole entry): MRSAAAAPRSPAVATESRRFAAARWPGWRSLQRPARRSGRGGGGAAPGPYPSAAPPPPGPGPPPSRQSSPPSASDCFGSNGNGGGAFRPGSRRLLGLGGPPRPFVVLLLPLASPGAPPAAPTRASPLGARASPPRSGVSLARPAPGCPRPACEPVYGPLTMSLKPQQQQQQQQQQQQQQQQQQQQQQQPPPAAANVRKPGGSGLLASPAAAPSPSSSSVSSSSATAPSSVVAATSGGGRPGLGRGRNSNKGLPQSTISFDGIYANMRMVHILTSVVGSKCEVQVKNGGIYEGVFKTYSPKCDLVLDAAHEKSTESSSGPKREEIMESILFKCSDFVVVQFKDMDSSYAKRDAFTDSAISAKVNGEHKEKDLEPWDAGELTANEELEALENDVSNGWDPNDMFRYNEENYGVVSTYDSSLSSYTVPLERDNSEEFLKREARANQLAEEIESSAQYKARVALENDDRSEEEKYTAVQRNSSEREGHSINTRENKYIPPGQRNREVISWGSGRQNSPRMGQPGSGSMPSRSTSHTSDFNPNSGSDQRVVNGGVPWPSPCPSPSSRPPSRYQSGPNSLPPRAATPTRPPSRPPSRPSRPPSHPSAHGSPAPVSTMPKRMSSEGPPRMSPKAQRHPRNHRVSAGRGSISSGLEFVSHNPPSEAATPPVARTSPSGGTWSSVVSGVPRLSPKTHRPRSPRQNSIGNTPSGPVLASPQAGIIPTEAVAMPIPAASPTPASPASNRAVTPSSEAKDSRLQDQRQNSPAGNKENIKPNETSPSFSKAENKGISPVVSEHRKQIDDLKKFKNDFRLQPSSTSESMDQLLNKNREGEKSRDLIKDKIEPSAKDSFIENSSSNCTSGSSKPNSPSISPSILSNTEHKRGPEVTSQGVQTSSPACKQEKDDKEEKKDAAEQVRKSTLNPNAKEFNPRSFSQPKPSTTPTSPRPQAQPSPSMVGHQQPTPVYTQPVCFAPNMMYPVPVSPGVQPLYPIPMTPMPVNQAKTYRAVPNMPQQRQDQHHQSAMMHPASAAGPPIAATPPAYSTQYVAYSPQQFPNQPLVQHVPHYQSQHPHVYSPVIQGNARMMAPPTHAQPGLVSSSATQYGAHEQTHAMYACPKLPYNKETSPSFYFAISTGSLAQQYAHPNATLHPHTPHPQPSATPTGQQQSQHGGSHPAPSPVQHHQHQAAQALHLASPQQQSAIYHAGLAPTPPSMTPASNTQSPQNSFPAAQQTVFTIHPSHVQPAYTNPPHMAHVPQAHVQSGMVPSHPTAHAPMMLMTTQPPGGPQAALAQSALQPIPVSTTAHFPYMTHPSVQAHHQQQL

B1: TDP-43ΔNLS,5F→L-YFP (other, human, UniProt Q13148 1-414, looked up)
chain: MSEYIRVTEDENDEPIEIPSEDDGTVLLSTVTAQFPGACGLRYRNPVSQCMRGVRLVEGILHAPDAGWGNLVYVVNYPKDNAAAMDETDASSAVKVKRAVQKTSDLIVLGLPWKTTEQDLKEYFSTFGEVLMVQVKKDLKTGHSKGLGLVRFTEYETQVKVMSQRHMIDGRWCDCKLPNSKQSQDEPLRSRKVLVGRCTEDMTEDELREFFSQYGDVMDVFIPKPFRALALVTFADDQIAQSLCGEDLIIKGISVHISNAEPKHNSNRQLERSGRFGGNPGGFGNQGGFGNSRGGGAGLGNNQGSNMGGGMNFGAFSINPAMMAAAQAALQSSWGMMGMLASQQNQSGPSGNNQNQGNMQREPNQAFGSGNNSYSGSNSGAAIGWGSASNAGSGSGFNGGFGSSMDSKSSGWGM
notes: also called ΔNLS-TDP-43-(5F→L)-YFP; not shown: C-terminal YFP tag
  binding result: no binding
